The supplement of paper PMC7877785
± gives the uncertainty stated by the source.

Experiment: self-splicing fitness, log relative to wild type (ln ratio); higher = more splicing; Tetrahymena group I intron in knt gene, E. coli kanamycin selection, DiMSum; sequences stand for … in CUCUCU…GGAGGGAAAAGUUAUCAGGCAUGCACCUGGUAGCUAGUCUUUAAACCAAUAGAUUGCAUCGGUUUAAAAGGCAAGACCGUCAAAUUGCGGGAAAGGGGUCAACAGCCGUUCAGUACCAAGUCUCAGGGGAAACUUUGAGAUGGCCUUGCAAAGGGUAUGGUAAUAAGCUGACGGACAUGGUCCUAACCACGCAGCCAAGUCCUAAGUCAACAGAUCUUCUGUUGAUAUGGAUGCAGUUCACAGACUAAAUGUCGGUCGGGGAAGAUGUAUUCUUCUCAUAAGAUAUAGUCGGACCUCUCCUUAAUGGGAGCUAGCGGAUGAAGUGAUGCAACACUGGAGCCGCUGGGAACUAAUUUGUAUGCGAAAGUAUAUUGAUUAGUUUUGGAGUACUCGUGGUCG
Procedure, shortened: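 Pooled colonies went to amplicon sequencing on an Illumina HiSeq 2500 after six replicate transformations. The plates were LB agar with 100 μg/mL carbenicillin, 50 μM IPTG and 0.2% rhamnose, with or without 25 μg/mL kanamycin, incubated overnight at 37°C or 30°C. The E. coli BL21(DE3) library had all eight P1ex-region intron nucleotides randomised, the intron placed in the knt kanamycin-resistance gene on pET-22b(+). DiMSum fitness is the error-weighted combination of replicate fold changes, kanamycin against none, normalised to wild type.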

Sequence | self-splicing fitness (ln) (30 °C) | self-splicing fitness (ln) (37 °C)
CAUCAGCAAUAUUACGUGAU | -2.78 ± 0.078 | -0.987 ± 0.086
CGACAGCAAUAUUACGUGGC | -3.68 ± 0.28 | -3.29 ± 0.26
AUCUAGCAAUAUUACGCCUU | -0.764 ± 0.073 | 0.116 ± 0.095
UACAAGCAAUAUUACGGCGG | -0.215 ± 0.065 | 0.218 ± 0.084
UCAAAGCAAUAUUACGUUAA | -3.54 ± 0.19 | -0.92 ± 0.12
GGGUAGCAAUAUUACGACGG |  | -1.18 ± 0.44
GCCAAGCAAUAUUACGCUCC | -0.474 ± 0.14 | 0.717 ± 0.17
ACUGAGCAAUAUUACGGUCG | -3.49 ± 0.16 | -1.46 ± 0.16
AAGGAGCAAUAUUACGUGUG | -3.39 ± 0.17 | -0.957 ± 0.15
CUCAAGCAAUAUUACGCUAC | -4.12 ± 0.29 | -2.23 ± 0.24
GUUAAGCAAUAUUACGCAGU | -1.74 ± 0.24 | -2.55 ± 0.23
CGCAAGCAAUAUUACGCAGC |  | -2.35 ± 0.27
GCAGAGCAAUAUUACGAUGA | -1.42 ± 0.14 | -1.07 ± 0.12
GCUUAGCAAUAUUACGGUAU | -1.74 ± 0.074 | -1.15 ± 0.091
UGGGAGCAAUAUUACGCGUA | -0.6 ± 0.38 | 0.46 ± 0.3
AGAGAGCAAUAUUACGGGUC |  | -3.11 ± 0.48
GUUAAGCAAUAUUACGUGUA | -2.09 ± 0.098 | -0.751 ± 0.091
ACCCAGCAAUAUUACGGUGC | -1.11 ± 0.069 | -0.261 ± 0.086
AGCUAGCAAUAUUACGGGCC | -3.59 ± 0.26 | -2.51 ± 0.24
CCCCAGCAAUAUUACGAAAG | -4.79 ± 0.23 | -1.93 ± 0.12
AUCCAGCAAUAUUACGAGGC | -1.97 ± 0.16 | -1.41 ± 0.23
GGCAAGCAAUAUUACGUCGC | -2.66 ± 0.14 | -1.38 ± 0.13
UCUUAGCAAUAUUACGCGGG | -2.21 ± 0.22 | -2.5 ± 0.34
UAAAAGCAAUAUUACGAGGC | -2.69 ± 0.34 | -2.67 ± 0.36
UGCCAGCAAUAUUACGAGGA | -1.49 ± 0.17 | -2.37 ± 0.22

Sequence | self-splicing fitness (ln) (30 °C) | self-splicing fitness (ln) (37 °C)
CCUCAGCAAUAUUACGUUGU | -4.98 ± 0.23 | -2.52 ± 0.13
CCUCAGCAAUAUUACGUGUG | -1.4 ± 0.061 | -0.812 ± 0.062
GCAGAGCAAUAUUACGUGAU | -2.24 ± 0.16 | -1.5 ± 0.18
CCAGAGCAAUAUUACGCAGC | -3.64 ± 0.28 | -1.77 ± 0.24
GCAAAGCAAUAUUACGUCAC | -3.96 ± 0.23 | -2.56 ± 0.44
CGAGAGCAAUAUUACGUGCU | -4.22 ± 0.46 | 
UUAGAGCAAUAUUACGUCGA | -1.18 ± 0.12 | 0.172 ± 0.14
UGUUAGCAAUAUUACGACUA | 0.407 ± 0.22 | -0.164 ± 0.19
UCGUAGCAAUAUUACGUGCC | -3.73 ± 0.33 | -1.13 ± 0.25
GCUUAGCAAUAUUACGGAAG | -2.07 ± 0.14 | -1.68 ± 0.14
AACAAGCAAUAUUACGCGAU | -3.61 ± 0.17 | -1.57 ± 0.12
GGGCAGCAAUAUUACGACGC | 0.36 ± 0.13 | -0.0449 ± 0.18
CAAUAGCAAUAUUACGGUGA | -2.83 ± 0.23 | -2.09 ± 0.21
AAAAAGCAAUAUUACGACUC | 0.0755 ± 0.088 | 0.373 ± 0.11
GGACAGCAAUAUUACGGGUC | -3.54 ± 0.23 | -2.56 ± 0.26
CUUAAGCAAUAUUACGUAUA | -2.9 ± 0.23 | -3.19 ± 0.29
UAUUAGCAAUAUUACGUUAC | -3.17 ± 0.23 | -2.86 ± 0.32
CUCAAGCAAUAUUACGUGGU | -3.18 ± 0.12 | -2.09 ± 0.12
GUGGAGCAAUAUUACGGCAC | -1.39 ± 0.19 | -0.386 ± 0.31
AGUGAGCAAUAUUACGCCUC | -1.98 ± 0.24 | 
GGGUAGCAAUAUUACGUUCU | -0.416 ± 0.11 | -0.164 ± 0.13
CCGAAGCAAUAUUACGCCCU |  | -1.26 ± 0.46
UCGUAGCAAUAUUACGAGGC | -0.464 ± 0.44 | 
GACUAGCAAUAUUACGAGGC |  | -2.23 ± 0.3
UUCUAGCAAUAUUACGUAAU | -3.08 ± 0.15 | -1.88 ± 0.17
